From patent publication US9364516B2, “Treatment of fibrosis-related disorders using fibronectin binding proteins and polypeptides” (priority 2010, dated 2016) come the findings set out here.

Experiment [1] relates to human saphenous veins. Put plainly: Ex vivo cultured human saphenous veins, intimal thickening. Conditions: 10× higher levels than 100-500 nM. On the procedure:
Saphenous veins were cut into 0.5 cm segments, and processed immediately (●) or cultured in 10% FBS/M199 containing 15 μM control III-11c peptide (▪) or pUR4 (▴) at 37° C. for 14 days. Veins were fixed, paraffin embedded, sectioned, and stained. Morphometric analysis was performed on six randomly chosen sections using Image-Pro Plus software. The intima/media ratio was determined by dividing intima area by media area. Paired student t-test was used to analyze the data. Data are expressed as mean±S.E.M. *p<0.05.
Human saphenous veins cultured in serum containing media develop intimal hyperplasia after 14 days in culture (Soyombo et al., “Intimal Proliferation in an Organ Culture of Human Saphenous Vein,” Am J Pathol. 137(6):1401-1410 (1990); Angelini et al., “Smooth Muscle Cell Proliferation in Response to Injury in an Organ Culture of Human Saphenous Vein,” Eur J Vasc Surg. 5(1):5-12 (1991); and Slomp et al., “Nature and Origin of the Neointima in Whole Vessel Wall Organ Culture of the Human Saphenous Vein,” Virchows Arch. 428(1):59-67 (1996), which are hereby incorporated by reference in their entirety). This system thus provides an ex vivo model system for studying mechanisms that lead to intimal hyperplasia that has distinct advantages over in vitro culture systems. […]

Experiment [2] addresses fibronectin-collagen interactions (Homo sapiens, UniProt P02751). Kind of experiment: Blocking of fibronectin-collagen interactions in cell culture. The format is cell-based. Conditions: cell culture experiments.

Chain of fibronectin-collagen interactions (P02751 32-2477): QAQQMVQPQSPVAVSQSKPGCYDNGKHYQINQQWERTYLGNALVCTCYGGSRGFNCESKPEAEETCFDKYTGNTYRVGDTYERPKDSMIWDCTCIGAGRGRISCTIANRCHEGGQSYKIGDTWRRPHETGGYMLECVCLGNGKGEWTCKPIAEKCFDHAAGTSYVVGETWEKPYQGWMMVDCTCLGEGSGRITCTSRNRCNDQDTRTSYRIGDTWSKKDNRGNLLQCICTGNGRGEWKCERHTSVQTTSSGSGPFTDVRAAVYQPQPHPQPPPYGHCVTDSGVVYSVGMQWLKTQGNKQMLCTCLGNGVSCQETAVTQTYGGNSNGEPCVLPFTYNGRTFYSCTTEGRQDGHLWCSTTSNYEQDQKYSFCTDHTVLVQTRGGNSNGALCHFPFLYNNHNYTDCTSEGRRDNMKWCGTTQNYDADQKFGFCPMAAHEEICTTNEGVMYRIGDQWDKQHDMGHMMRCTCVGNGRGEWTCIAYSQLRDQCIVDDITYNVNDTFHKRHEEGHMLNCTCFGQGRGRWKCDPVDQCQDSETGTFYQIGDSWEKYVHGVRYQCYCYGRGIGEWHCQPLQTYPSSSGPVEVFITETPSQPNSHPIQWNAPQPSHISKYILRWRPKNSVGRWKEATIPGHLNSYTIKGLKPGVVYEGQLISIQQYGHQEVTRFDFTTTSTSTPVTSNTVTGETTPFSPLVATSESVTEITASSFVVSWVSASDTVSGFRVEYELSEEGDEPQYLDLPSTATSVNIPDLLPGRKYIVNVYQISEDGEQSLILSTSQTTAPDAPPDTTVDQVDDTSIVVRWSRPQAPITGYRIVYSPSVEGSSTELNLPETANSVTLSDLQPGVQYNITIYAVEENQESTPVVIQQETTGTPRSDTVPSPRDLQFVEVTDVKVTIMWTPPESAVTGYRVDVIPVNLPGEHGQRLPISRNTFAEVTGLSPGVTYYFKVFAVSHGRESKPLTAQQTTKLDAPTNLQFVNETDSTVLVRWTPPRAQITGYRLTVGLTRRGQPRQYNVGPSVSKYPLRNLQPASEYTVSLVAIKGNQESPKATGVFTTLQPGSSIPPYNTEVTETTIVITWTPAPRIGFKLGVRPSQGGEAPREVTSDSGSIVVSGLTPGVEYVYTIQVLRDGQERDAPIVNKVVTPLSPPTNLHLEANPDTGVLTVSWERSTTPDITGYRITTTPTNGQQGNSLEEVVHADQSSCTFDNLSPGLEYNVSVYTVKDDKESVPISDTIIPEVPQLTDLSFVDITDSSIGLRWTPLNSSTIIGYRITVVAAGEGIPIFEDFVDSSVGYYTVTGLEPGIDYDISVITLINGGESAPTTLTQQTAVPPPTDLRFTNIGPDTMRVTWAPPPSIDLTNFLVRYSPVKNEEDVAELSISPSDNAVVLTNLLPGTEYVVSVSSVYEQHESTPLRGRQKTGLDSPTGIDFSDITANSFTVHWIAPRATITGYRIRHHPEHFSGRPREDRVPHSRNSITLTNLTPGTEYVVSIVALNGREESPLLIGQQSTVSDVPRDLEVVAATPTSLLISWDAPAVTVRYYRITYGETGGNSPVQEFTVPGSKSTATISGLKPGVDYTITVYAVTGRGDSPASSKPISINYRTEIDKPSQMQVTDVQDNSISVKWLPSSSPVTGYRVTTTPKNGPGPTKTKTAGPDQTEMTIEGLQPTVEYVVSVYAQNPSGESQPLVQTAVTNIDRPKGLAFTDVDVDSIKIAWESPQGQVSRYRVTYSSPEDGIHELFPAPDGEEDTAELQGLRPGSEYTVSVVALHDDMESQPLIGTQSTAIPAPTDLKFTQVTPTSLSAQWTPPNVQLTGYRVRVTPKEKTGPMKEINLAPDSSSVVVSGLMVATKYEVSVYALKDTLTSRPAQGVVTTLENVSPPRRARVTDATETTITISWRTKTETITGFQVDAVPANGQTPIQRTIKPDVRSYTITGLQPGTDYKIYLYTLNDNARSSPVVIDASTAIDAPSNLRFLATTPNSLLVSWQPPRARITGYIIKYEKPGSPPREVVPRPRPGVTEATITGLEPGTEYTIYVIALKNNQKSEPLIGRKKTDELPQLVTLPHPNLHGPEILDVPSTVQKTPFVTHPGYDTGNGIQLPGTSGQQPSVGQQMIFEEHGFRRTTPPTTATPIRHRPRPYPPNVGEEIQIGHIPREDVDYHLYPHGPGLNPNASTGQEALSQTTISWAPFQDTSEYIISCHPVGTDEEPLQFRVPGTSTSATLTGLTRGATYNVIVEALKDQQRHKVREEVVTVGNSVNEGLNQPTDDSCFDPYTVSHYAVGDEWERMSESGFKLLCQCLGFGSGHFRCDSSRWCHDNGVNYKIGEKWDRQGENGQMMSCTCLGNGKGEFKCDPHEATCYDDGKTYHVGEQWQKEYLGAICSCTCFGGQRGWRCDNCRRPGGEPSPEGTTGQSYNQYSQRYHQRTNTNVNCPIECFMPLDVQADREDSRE

B1: R1R2: class II bacterial adhesin derived peptide (SEQ ID NO: 4) that interferes with fibronectin-collagen binding (peptide)
chain: HHHHHHGSGLNGENQKEPEQGERGEAGPPLSGLSGNNQGRPSLPGLNGENQKEPEQGERGEAGPPKSN
modifications: Bacterial adhesin derived peptide R1R2
In the case of B1, the intimal hyperplasia result in experiment [1] is on record as “attenuate”. Also, the “concentrations effective at blocking fibronectin-collagen interactions” value in experiment [2] lay within 100 to 500 nM.
